This data set can be described thus: yeast display, Sf9 membrane polyspecificity reagent, FACS + sequencing; frameworks hold sequencing errors. In outline: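 Nanobodies from a synthetic yeast display library (Saccharomyces cerevisiae BJ5465), induced 36–48 hours with galactose, were stained 1 hour at 4 °C with 10% biotinylated, detergent-solubilized Sf9 membrane reagent, enriched on streptavidin microbeads, then FACS-sorted. Anti-HA (expression) and streptavidin (reagent binding) fluorescence set low and high (top ~1%) gates. Polyreactivity labels come from the gate of origin. Genes were colony-PCR amplified, MiSeq 2 × 250 sequenced and filtered by CDR length.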
“QVQLVESGGGLVQAGGSLRLSCAASGYTFFYYAMGWSRQAPGKERELVAIDLNGGSTYYADSVKGRFTISRDNAKNTVYLQMNSLKPEDTAVSSCAATRPWYGDVGYLEDYWGQGTQVTVSS”: the “polyreactivity (PSR sort gate)” value is on record as “low polyreactivity”. For the sequence “QVQLVESGGGLVQAGGSLRLSCAASGYTFGEYAMGWYRQAPGKERELVATISLSDGSTNYADSVKGRFTISRDNAKNTVYLQMNSLKPEDTAVYYCATETQQALYGSVLKYNYWGQGTQVTVSS”, the “polyreactivity (PSR sort gate)” value is given as “low polyreactivity”. The value for “QVQLVESGGGLVQAGGSLRLSCAASGYTFGGNAMGWYRQAPGKERELVAAISNTGGRTNYADSVKGRFTISRDNAKNTVYLQMNSLKPEDTAVSYCAKSVYYRDRYGGDYWGQGTQVTVSS” was “low polyreactivity”; that for “QVQLVESGGGLVQAGGSLRLSCAASGYTFGINAMGWYRQAPGNERELVAAITTGGSTNYADSVKGRFTISRDNAKNTVYLQMNSLTPEDTAVYYCNASWDGWNANYWYPGAYYYWGQGTQVTVSS” was “low polyreactivity”. The value for “QVQLVESGGGLVQAGGSLRLSCAASGYTFGKYAMGWYRQAPGKEREWVAGISSRGGSTYYADSVKGRFTISRDNAKNTVYLQMNSLKPEDTAVYYCAAVAYTGGPRKLGFNYWGQGTQVTVSS” was “high polyreactivity”; that for “QVQLVESGGGLVQAGGSLRLSCAASGYTFGPYAMGWYRQAPGKERELVAAITTRGGSTYYADSVKGRFTISRYNAKNTVYLQMNSLKPEDTAVYYCAAESIRSDDYWGQGTQVTVSS” was “high polyreactivity”. The value for “QVQLVESGGGLVQAGGSLRLSCAASGYTFGYNAMGWYRQAPGKERELVATISSGGTTTYADSVKGRFTISRDNAKNTVYLQMNSLKPEDTAVYYCNVYDYPTYDYWGQGTQVTVSS” was “low polyreactivity”; that for “QVQLVESGGGLVQAGGSLRLSCAASGYTFGYYAMGWYRQAPGKERELVAAINWSGGSTYYADSVKGRFTISRDNAKNTVYLQMNSLKPEDTAVYYCNRRTGSYGRTPVWKGEYYYWGQGTQVTVSS” was “high polyreactivity”; that for “QVQLVESGGGLVQAGGSLRLSCAASGYTFGYYAMGWYRQAPGKERELVAAISWRGARTNYADSVKGRFTISRDNAKNTVYLQMNSLKPEDTAVYYCAAGYYYGYPPRDYWGQGTQVTVSS” was “high polyreactivity”.

In the case of “QVQLVESGGGLVQAGGSLRLSCAASGYTFHGYAMGWYRQAPGKERELVAVITQRGGSTSYADSVKGRFTISRDNAKNTVYLQMNSLKPEDTAVYYCNADGPSTPWVDYGYWGQGTQVTVSS”, the “polyreactivity (PSR sort gate)” value was “low polyreactivity”.

As for “QVQLVESGGGLVQAGGSLRLSCAASGYTFKRYAMGWYRQAPGKESDLVASITRRGGSTYYADSVKGRFTISRDNAKNTVNLQMNSLKPEDTAVYDCAKSIPLGYTIYDYWGQGTQVTVSS”, the “polyreactivity (PSR sort gate)” value was “high polyreactivity”. For “QVQLVESGGGLVQAGGSLRLSCAASGYTFKVYAMGWYRQAPGKERELVAAIRSSGGSTYADSVKGRFTISRDNAKNTVYLQMNSLKPEDTAVYYCAKAGYVSGLYSATRYEYWGQGTQVTVSS” the value was “low polyreactivity”. The value for “QVQLVESGGGLVQAGGSLRLSCAASGYTFLYYAMGWYRQAPGKEREFVAAISRSGGSTYYADSVKGRFTISRDNAKNTVYLQMNSLKPEDTAVYFCAARFRYQHQRGDYWGQGTQVTVSS” was “high polyreactivity”. As to “QVQLVESGGGLVQAGGSLRLSCAASGYTFNFNAMGWYRQAPGKERELVAAITWNGGRTYYADSVKGRFTISRDNAKNTVYLQMNSLKPEDTAVYYCAARSYQRPSDTRYDYWGQGTQVTVSS”, the “polyreactivity (PSR sort gate)” value is given as “high polyreactivity”. For “QVQLVESGGGLVQAGGSLRLSCAASGYTFNYYAMGWYRQAPGKERELVAAIRSTGSTNYADSVKGRFTISRDNAKNTVYLQMKSLKPEDTAVYYCAAKIRKDYSIQGYDYWGQGSQVTVSS” the value was “high polyreactivity”; for “QVQLVESGGGLVQAGGSLRLSCAASGYTFPLYAMGWSRQAPGKEREFVAAISKRSGTTYYADSVKGRFTISRDNAKNTVYLQMNSLKPEDTAVYYCAASNGYQAVTYDYWGQGTQVTVSS”, “high polyreactivity”. For the sequence “QVQLVESGGGLVQAGGSLRLSCAASGYTFPLYAMGWYRQAPGQERELVADINIGGASTYYADSVKGRFTISRDNAKNTVYLQMNSLKPEDTAVYYSAKEYYDGYFPTFDYDYWGQGTQVTVSS”, the “polyreactivity (PSR sort gate)” value is “low polyreactivity”.

“QVQLVESGGGLVQAGGSLRLSCAASGYTFPMYAMGWYRQAPGKERELVADINIGGASTYYADSVKGRFTISRDNAKNTVYLQMNSLKPEDSAVYYCAKEYYDGYFPTFDYDYWGQGTQVTVSS”: the “polyreactivity (PSR sort gate)” value is listed as “low polyreactivity”. With “QVQLVESGGGLVQAGGSLRLSCAASGYTFPYAMGWYRQAPGKERELVAAISSRGSSTYYADSVKGRFTISRDNAKNTVYLQINSLKPEDTAVYYCAAKHFVKVDYWGQGTQVTVSS”, the “polyreactivity (PSR sort gate)” value was “high polyreactivity”. For “QVQLVESGGGLVQAGGSLRLSCAASGYTFQHYAMGWYRQAPGKERELVAAITRRGSGTYYADSVKGRFTSSRDNAKNTVYLQMNSLKPEDTAVYYCAAAVGHGVDYWGQGTQVTVSS” the value was “high polyreactivity”.

In the case of “QVQLVESGGGLVQAGGSLRLSCAASGYTFRAYAMGWYRQAPGKEREFVAAISRSGGSTYYADSVKGRFTISRDNAKNTVYLQMNSLKPEDTAVYYCARRYARITPVYPPLNYWGQGSQVTVSS”, the “polyreactivity (PSR sort gate)” value was “high polyreactivity”. For “QVQLVESGGGLVQAGGSLRLSCAASGYTFRGNAMGWYRQAPGKERELVAAISIGGTTYYADSVKGRFTISRDNAKNTVYLQMNSLKPVDTAVYYCARRGLAFLFDYWGQGTQVTVSS” the value was “low polyreactivity”; for “QVQLVESGGGLVQAGGSLRLSCAASGYTFRKYAMGWYRQAPGKERELVAAITYTGGSTYYADSVKGRFTISRDNAKNTVYLQMNSLKPEDTAVYYCARRYRWGEYGYWGQGTQVTVSS”, “high polyreactivity”.

“QVQLVESGGGLVQAGGSLRLSCAASGYTFRYYAMGWYRQAPGKEREFVAAITWSDSGTYYADSVKGRFTISRDNAKNTVYLQMNSLKPEDTAVYYCAAERYLSFDRYLYEYYYWGQGTQVTVSS”: the “polyreactivity (PSR sort gate)” value was “low polyreactivity”. The value for “QVQLVESGGGLVQAGGSLRLSCAASGYTFRYYGMGWYRQAPGNERELVADINSNGVRTYYADSVKGRFTISRDNAKNTVYVQMNSLKPEDTAVYYCNKDWGRYRYDYWGQGTQVTVSS” was “high polyreactivity”. For the sequence “QVQLVESGGGLVQAGGSLRLSCAASGYTFSDNAMGWSRQAPGKERDLVAAITSGVSKYFADSVKGRFTISRDNAKNTVYLQMNSLKPEDTADYYFAKDVAVYADLYQGAPYGYWGQGTQVTVSS”, the “polyreactivity (PSR sort gate)” value is reported as “low polyreactivity”.

As for “QVQLVESGGGLVQAGGSLRLSCAASGYTFSDNAMGWYRPAPGKERELVAAITSGVSTYYADSVKGRFRISRDNAKNSVYLQMNSLNPEDTAVYYCAAEPDTYWYTYDYWGQGTQVTVSS”, the “polyreactivity (PSR sort gate)” value is “low polyreactivity”. For “QVQLVESGGGLVQAGGSLRLSCAASGYTFSDNAMGWYRQAPGKEWELVAAISTGGSTNYADSVKGRFTISRDNAKNTVYLQMNSLKPEDTAVYYCATDAWSFGYNYVPLHYDYWGQGTQVTVSS” the value was “low polyreactivity”; for “QVQLVESGGGLVQAGGSLRLSCAASGYTFSFYAMGWYRQAPGKERELVAAISSSDGTTYYADSEKGRFTISRDNAKNTVYLQMNSLKPEDTAVYYCNTRYVRQVVGTYTLKTRYYWGQGTQVTVSS”, “high polyreactivity”; for “QVQLVESGGGLVQAGGSLRLSCAASGYTFSFYAMGWYRQATGKERELVADISRSGGSTYYADSVKGRFTISRDNAKNTVYLQMNSQKPEDTAVYYCAARWPGAYHEYGYLGQGTQVTVSS”, “high polyreactivity”. For “QVQLVESGGGLVQAGGSLRLSCAASGYTFSYANAMGWYRQAPGKERELVASISSTGGRTYYADSVKGRFTISRDNAKNTVYLQMNSLKPEDTAVYYCASRYWRYGYWGQGTQVTVSS” the value was “high polyreactivity”.

“QVQLVESGGGLVQAGGSLRLSCAASGYTFSYNAMGWYRQAPGKERELVARITRGTSTYADSVKGRFTISRDNAKNTVYLQMNSLKPEDTAVYYCAARPGSGRSYTSDYWGQGSQVTVSS”: the “polyreactivity (PSR sort gate)” value was “high polyreactivity”. On to “QVQLVESGGGLVQAGGSLRLSCAASGYTFSYNTMGWYRQAPGKERELVAAIRLSGGSTYYADSVKGRFTSSRDNAKNTVYLQMNSLKPEDTAVYYCAARQIITKFYTSNGVSYYYWGQGTQETVSS”, for which the “polyreactivity (PSR sort gate)” value is reported as “high polyreactivity”.

Turning to “QVQLVESGGGLVQAGGSLRLSCAASGYTFTGYAMGWYRQAPGKERELVAAITSIGGSTYYADSVKGRFTISRDNAKNTVYLQMNSLKPEDTAVYYCAAEGDYVYDMDYWGQGTQVTVSS”, the “polyreactivity (PSR sort gate)” value is on record as “low polyreactivity”. For the sequence “QVQLVESGGGLVQAGGSLRLSCAASGYTFTVYPMGGYRPAPGKERELVAAIRDGSSTNYADSVKGRFTISRDNAKNTVYLQMISLKPEDTAVYYCNAYSQSWNFYGDGDYWGQGTQVTVSS”, the “polyreactivity (PSR sort gate)” value is “low polyreactivity”.

As to “QVQLVESGGGLVQAGGSLRLSCAASGYTFVLNAMGWYRQAPGKEREMVAAINLDSGNTNYADSVKGRFTISRDNAKNTVYLQMNSLKPEDTAVYYCNTDVKFGGTAYDYWGQGTQVNVSS”, the “polyreactivity (PSR sort gate)” value is recorded as “low polyreactivity”.

With “QVQLVESGGGLVQAGGSLRLSCAASGYTFVNYAMGWYRQAPGKEREFVAAISRSGGSTYYADSVKGRFTISRDNAKNTVYLQMNSLKPEDSAVYYCALRGYPPYKYYYWGQGTQVTVSS”, the “polyreactivity (PSR sort gate)” value was “high polyreactivity”. For “QVQLVESGGGLVQAGGSLRLSCAASGYTFVRYAMGWYRQAPGKERELVAAISRSGGSTYYADSVKGRFTISRDNAKNTVYLQMNSLKPEDTAVYYCNAYPYSYYDYDYWGQGTQVTVSS” the value was “high polyreactivity”; for “QVQLVESGGGLVQAGGSLRLSCAASGYTFWQYAMGWYRQAPGKERELVAAISGSGGRTYYADSVKGRFTISRDNAKNPVYLQMHSLKPEDTAVYYCAVGYRTPYLSRGGYWGQGTQVTVSS”, “high polyreactivity”.

For “QVQLVESGGGLVQAGGSLRLSCAASGYTFYANAMGWYRQAPGTEREFVASITWSGGSTYYADSVKGRFTISRDNAKNTVYLQMNSLKPEDTAVYYCAAESWFKYDYWGQGTQVTVSS”, the “polyreactivity (PSR sort gate)” value is “low polyreactivity”. With “QVQLVESGGGLVQAGGSLRLSCAASGYTFYEYAMGWYRQAPGKERELGAAIRGSGGGTYYADSVKGRFTISRDNAKNTVYLQMNSLKPEDTAVYYCAVKYAYPYAGVSAIRYYYWGQGTQVTVSS”, the “polyreactivity (PSR sort gate)” value was “low polyreactivity”.

For the origin of these results see the nanobody polyreactivity screen of Harvey et al. (2022).
